Data on six molecules can be found in patent US20090123489A1 (IMMATICS BIOTECHNOLOGIES, published 2009).

Test [1] addresses HLA-A*0201 (recombinant heavy chain with beta-2 microglobulin) (human). The test is described as follows: ELISA-based HLA refolding assay. The protocol:
Stable HLA/peptide complexes consist of three molecules: HLA heavy chain, beta-2 microglobulin (b2m) and the peptidic ligand. […] The availability of these molecules is used in an ELISA-based assay to measure the affinity of interaction between peptide and HLA class I molecule (Sylvester-Hvid et al., 2002).
The amount of de novo-folded HLA/peptide complexes was determined by a quantitative ELISA. Dissociation constants (KD values) were calculated using a standard curve recorded from dilutions of a calibrant HLA/peptide complex.

In test [2] the target is T1, HLA-A*0205 (human).
T1 construct: whole, on cells; Native HLA precipitated from tumor tissue
The test is described as follows: peptide eluted from HLA precipitated from glioblastoma tissue, identified by ESI-LCMS.

B1: PTP-002 (peptide)
peptide: FLYKVILSL
On to B1, for which the binding result in test [1] is “binds”.

B2: CHI-001 (peptide)
peptide: SLWAGVVVL
B2: the binding result in test [1] was “binds”.

B3: PTP-004 (peptide)
peptide: FLLPDTDGL
Consider B3, for which, in test [1], the binding result was “binds”.

B4: PTP-003 (peptide)
peptide: AIIDGVESV
Take B4: the binding result in test [1] is on record as “binds”.

B5: PTP-001 (peptide)
peptide: ALTTLMHQL
notes: 9-mer from PTPRZ1
Regarding B5, the binding result in test [1] and in test [2] was “binds” in each case.

B6: PTP-005 (peptide)
peptide: KVFAGIPTV
Consider B6, for which the binding result in test [1] is given as “binds”.
